Data as given in US20070071773.

Tests used:
[1] = target: recombinant human IL-8/CXCL8 (UniProt P10145)
[2] = target: T1, recombinant murine MIP-2 (UniProt P10889)
T1 sequence: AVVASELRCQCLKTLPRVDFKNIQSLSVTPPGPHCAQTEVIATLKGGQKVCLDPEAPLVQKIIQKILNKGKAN

Sequence of recombinant human IL-8/CXCL8 (P10145 28-99): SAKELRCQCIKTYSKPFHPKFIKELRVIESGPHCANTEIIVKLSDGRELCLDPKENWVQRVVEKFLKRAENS

## trypsin-like GAS protease (chemokine protease released into the culture supernatant of GAS strain JS95)
[1]
  IL-8 degradation (Western blot): JS95 supernatant effectively degraded IL-8
[2]
  MIP-2 degradation (dot blot): The supernatant of JS95 degraded more than 80% of the recombinant MIP-2 protein
